How the values were obtained:
[1] = biological target: tissue factor (TF) antigen (UniProt P13726); test: SPR, Fab captured on anti-penta His, TF injected
[2] = biological target: tissue factor (TF) antigen (UniProt P13726); test: SPR (ProteOn), Fab captured by anti-penta-His, TF as analyte, 1:1 fit
[3] = biological target: tissue factor (TF) antigen (UniProt P13726); test: SPR (ProteOn), against wild-type D3H44 Fab
[4] = biological target: tissue factor (TF) antigen (UniProt P13726); test: SPR (ProteOn), Fab captured on anti-penta-His, TF analyte, 1:1 fit
[5] = biological target: tissue factor (TF) antigen (UniProt P13726); test: SPR KD against wild-type D3H44 Fab (reference KD 0.157 nM)

Sequence of tissue factor (TF) antigen (P13726 33-251 limits assumed): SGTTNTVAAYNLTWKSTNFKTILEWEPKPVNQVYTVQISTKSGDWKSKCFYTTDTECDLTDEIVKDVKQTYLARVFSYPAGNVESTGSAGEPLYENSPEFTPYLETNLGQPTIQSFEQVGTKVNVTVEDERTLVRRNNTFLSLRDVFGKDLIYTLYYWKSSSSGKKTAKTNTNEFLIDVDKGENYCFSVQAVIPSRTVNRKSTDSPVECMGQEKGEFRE

| Substance | Kd [4] [nM] | Change in KD with respect to wild type (-(log(KD design) - log(KD wt))) [5] | further results |
| --- | --- | --- | --- |
| D3H44 Fab heterodimer H L124R_D146N_Q179K / L Q124E_V133G_S176D_T178E_T180E (H1L1 Fab of LCCA Set # 9350, 9351) | – | – | Change in KD with respect to wild type (-(log(KD design) - log(KD wt))) [1]: -0.1; Kd [1]: 0.2 nM |
| D3H44 Fab heterodimer H L124R_D146N_Q179K / L V133G_S176D_T178E_T180E (H1L1 Fab of LCCA Set # 9359) | – | – | Change in KD with respect to wild type (-(log(KD design) - log(KD wt))) [1]: -0.01; Kd [1]: 0.16 nM |
| D3H44 Fab heterodimer H L124R_Q179K / L Q124E_V133G_S176D_T178E_T180E (H1L1 Fab of LCCA Set # 9384, 9388) | – | – | Change in KD with respect to wild type (-(log(KD design) - log(KD wt))) [1]: -0.15; Kd [1]: 0.22 nM |
| D3H44 Fab heterodimer H L124R_Q179K / L V133G_S176D_T178E_T180E (H1L1 Fab of LCCA Set # 9426) | – | – | Change in KD with respect to wild type (-(log(KD design) - log(KD wt))) [1]: -0.16; Kd [1]: 0.23 nM |
| D3H44 Fab heterodimer H L124R_S186K / L Q124E_V133G_S176D_T178D_T180E (H1L1 Fab of LCCA Set # 9461) | – | – | Change in KD with respect to wild type (-(log(KD design) - log(KD wt))) [1]: -0.23; Kd [1]: 0.26 nM |
| D3H44 Fab heterodimer H L124R_S186K / L V133G_S176D_T178D_T180E (H1L1 Fab of LCCA Set # 9473) | – | – | Change in KD with respect to wild type (-(log(KD design) - log(KD wt))) [1]: -0.07; Kd [1]: 0.18 nM |
| D3H44 Fab heterodimer H L124R_S186K / L V133G_S176D_T178E_T180E (H1L1 Fab of LCCA Set # 9489) | – | – | Change in KD with respect to wild type (-(log(KD design) - log(KD wt))) [1]: -0.17; Kd [1]: 0.23 nM |
| D3H44 Fab heterodimer, H1L1 of LCCA set 9444 (H: L124R_Q179K; L: V133G_S176D_T180E) | – | – | Kd [2]: 0.28 nM; Change in KD with respect to wild type (-(log(KD design) - log(KD wt))) [3]: -0.26 |
| D3H44 Fab heterodimer, H1L1 of LCCA set 9575 (H: L143D_K145T_Q179E; L: T178R) | – | – | Kd [2]: 0.28 nM; Change in KD with respect to wild type (-(log(KD design) - log(KD wt))) [3]: -0.25 |
| D3H44 Fab heterodimer, H1L1 of LCCA set 9588 (H: L143E_K145T; L: Q124R) | – | – | Kd [2]: 0.28 nM; Change in KD with respect to wild type (-(log(KD design) - log(KD wt))) [3]: -0.25 |
| D3H44 Fab heterodimer, H1L1 of LCCA set 9620 (H: L143E_K145T_Q179D; L: Q124R_Q160K_T178R) | – | – | Kd [2]: 0.06 nM; Change in KD with respect to wild type (-(log(KD design) - log(KD wt))) [3]: 0.39 |
| D3H44 Fab heterodimer, H1L1 of LCCA set 9632 (H: L143E_K145T_Q179D; L: Q124R_T178R) | – | – | Kd [2]: 0.14 nM; Change in KD with respect to wild type (-(log(KD design) - log(KD wt))) [3]: 0.04 |
| D3H44 Fab heterodimer, H1L1 of LCCA set 9638 (H: L143E_K145T_Q179D; L: T178R) | – | – | Kd [2]: 0.11 nM; Change in KD with respect to wild type (-(log(KD design) - log(KD wt))) [3]: 0.17 |
| D3H44 Fab heterodimer, H: A139C_L143E_K145T_Q179E, L: F116C_Q124R_T178R (H1L1 Fab of LCCA set 9049) | 0.16 | -0.01 | – |
| D3H44 Fab heterodimer, H: L124A_L143F_Q179K, L: Q124E_V133W_S176T_T178E_T180E (H1L1 Fab of LCCA set 9092) | 0.16 | -0.02 | – |
| D3H44 Fab heterodimer, H: L124A_L143F_Q179K, L: Q124E_V133W_S176T_T178L_T180E (H1L1 Fab of LCCA set 9096) | 0.17 | -0.04 | – |
| D3H44 Fab heterodimer, H: L124A_Q179K, L: Q124E_V133W_S176T_T178E_T180E (H1L1 Fab of LCCA set 9098) | 0.17 | -0.03 | – |
| D3H44 Fab heterodimer, H: L124A_Q179K, L: Q124E_V133W_S176T_T178L_T180E (H1L1 Fab of LCCA set 9099) | 0.19 | -0.09 | – |
| D3H44 Fab heterodimer, H: L124W_L143F_K145T_Q179E, L: S131K_V133A_S176T_T178L (H1L1 Fab of LCCA sets 9571 and 9572) | 0.26 | -0.21 | – |
| D3H44 Fab heterodimer, H: L143E_K145T_Q179D, L: Q124R_T178R (H1L1 Fab of LCCA set 9632) | 0.14 | 0.04 | – |
| D3H44 Fab heterodimer, H: L143E_K145T_Q179E, L: Q124K_T178R (H1L1 Fab of LCCA set 9648) | 0.14 | 0.05 | – |

| Substance | Kd [4] [nM] | Change in KD with respect to wild type (-(log(KD design) - log(KD wt))) [5] | further results |
| --- | --- | --- | --- |
| D3H44 Fab heterodimer, H: L143E_K145T_Q179E, L: Q124R_Q160K_T178R (H1L1 Fab of LCCA set 9654) | 0.15 | 0.02 | – |
| D3H44 Fab heterodimer, H: L143E_K145T_Q179E, L: Q124R_T178K (H1L1 Fab of LCCA set 9660) | 0.19 | -0.08 | – |
| D3H44 Fab heterodimer, H: L143K, L: Q124E_V133D (H1L1 Fab of LCCA set 9731) | 0.28 | -0.26 | – |
| D3H44 Fab heterodimer, H: L143R, L: Q124E_V133E (H1L1 Fab of LCCA set 9740) | 0.2 | -0.09 | – |
| D3H44 Fab heterodimer, H: Q179K, L: Q124E_Q160E_T178E (H1L1 Fab of LCCA set 9758) | 0.29 | -0.27 | – |
| D3H44 Fab heterodimer, H: Q179K, L: Q124E_Q160E_T180E (H1L1 Fab of LCCA set 9759) | 0.32 | -0.31 | – |
| D3H44 Fab heterodimer, H: Q179K, L: Q124E_T178E (H1L1 Fab of LCCA set 9784) | 0.14 | 0.05 | – |
| D3H44 Fab heterodimer, H: Q179K, L: Q124E_T178E_T180E (H1L1 Fab of LCCA set 9786) | 0.13 | 0.1 | – |
| D3H44 Fab heterodimer, H: Q179K, L: Q124E_T180E (H1L1 Fab of LCCA sets 9787, 9792 and 9794) | 0.11 | 0.16 | – |
| D3H44 Fab heterodimer, H: Q179R, L: Q124E_Q160E_T178E (H1L1 Fab of LCCA set 9802) | 0.11 | 0.16 | – |
| D3H44 Fab heterodimer, H: Q179R, L: Q124E_T178E (H1L1 Fab of LCCA set 9810) | 0.14 | 0.04 | – |
| D3H44 Fab heterodimer, H: Q179R, L: Q124E_T178E_T180E (H1L1 Fab of LCCA set 9812) | 0.16 | -0.01 | – |
| D3H44 Fab heterodimer, H: S186K, L: Q124E_Q160E_T178E (H1L1 Fab of LCCA set 9830) | 0.06 | 0.41 | – |
| D3H44 Fab heterodimer, H: S186K, L: Q124E_Q160E_T180E (H1L1 Fab of LCCA set 9838) | 0.13 | 0.09 | – |
| D3H44 Fab heterodimer, H: S186K, L: Q124E_T178E (H1L1 Fab of LCCA set 9850) | 0.15 | 0.01 | – |
| D3H44 Fab heterodimer, H: S186K, L: Q124E_T178E_T180E (H1L1 Fab of LCCA set 9852) | 0.15 | 0.02 | – |
| D3H44 Fab heterodimer, H: S186K, L: Q124E_T180E (H1L1 Fab of LCCA sets 9853 and 9858) | 0.06 | 0.46 | – |
| D3H44 Fab heterodimer, H: S186R, L: Q124E_Q160E_T178E (H1L1 Fab of LCCA set 9868) | 0.14 | 0.06 | – |
| D3H44 Fab heterodimer, H: S186R, L: Q124E_T178E (H1L1 Fab of LCCA set 9888) | 0.14 | 0.06 | – |
| D3H44 Fab heterodimer, H: S186R, L: Q124E_T178E_T180E (H1L1 Fab of LCCA set 9890) | 0.05 | 0.49 | – |
| D3H44 Fab heterodimer, H: S186R, L: Q124E_T180E (H1L1 Fab of LCCA sets 9891, 9893, 9896 and 9898) | 0.07 | 0.36 | – |

Reference: patent publication US11306156
